From article PMC9536601, “Binding of adenovirus species C hexon to prothrombin and the influence of hexon on vector properties in vitro and in vivo” (PLoS Pathogens, 2022) come the findings set out here.

Numbering of substitutions follows the chain as printed.

To fix the notation:
B1: hexon of wild-type human adenovirus type 2 (on virions) (natural protein)
chain: MATPSMMPQWSYMHISGQDASEYLSPGLVQFARATETYFSLNNKFRNPTVAPTHDVTTDRSQRLTLRFIPVDREDTAYSYKARFTLAVGDNRVLDMASTYFDIRGVLDRGPTFKPYSGTAYNALAPKGAPNSCEWEQTEDSGRAVAEDEEEEDEDEEEEEEEQNARDQATKKTHVYAQAPLSGETITKSGLQIGSDNAETQAKPVYADPSYQPEPQIGESQWNEADANAAGGRVLKKTTPMKPCYGSYARPTNPFGGQSVLVPDEKGVPLPKVDLQFFSNTTSLNDRQGNATKPKVVLYSEDVNMETPDTHLSYKPGKGDENSKAMLGQQSMPNRPNYIAFRDNFIGLMYYNSTGNMGVLAGQASQLNAVVDLQDRNTELSYQLLLDSIGDRTRYFSMWNQAVDSYDPDVRIIENHGTEDELPNYCFPLGGIGVTDTYQAIKANGNGSGDNGDTTWTKDETFATRNEIGVGNNFAMEINLNANLWRNFLYSNIALYLPDKLKYNPTNVEISDNPNTYDYMNKRVVAPGLVDCYINLGARWSLDYMDNVNPFNHHRNAGLRYRSMLLGNGRYVPFHIQVPQKFFAIKNLLLLPGSYTYEWNFRKDVNMVLQSSLGNDLRVDGASIKFDSICLYATFFPMAHNTASTLEAMLRNDTNDQSFNDYLSAANMLYPIPANATNVPISIPSRNWAAFRGWAFTRLKTKETPSLGSGYDPYYTYSGSIPYLDGTFYLNHTFKKVAITFDSSVSWPGNDRLLTPNEFEIKRSVDGEGYNVAQCNMTKDWFLVQMLANYNIGYQGFYIPESYKDRMYSFFRNFQPMSRQVVDDTKYKEYQQVGILHQHNNSGFVGYLAPTMREGQAYPANVPYPLIGKTAVDSITQKKFLCDRTLWRIPFSSNFMSMGALTDLGQNLLYANSAHALDMTFEVDPMDEPTLLYVLFEVFDVVRVHQPHRGVIETVYLRTPFSAGNATT
notes: hexon of human adenovirus type 2 (species C), whole hexon as it stands in the capsid of the virion; Immobilised as whole virions; also called Ad2; source: wild-type virus from ATCC, grown on 293 cells, virions purified by CsCl ultracentrifugation
B2: mouse prothrombin (coagulation factor II) (natural protein)
chain: not shown
modifications: gamma-carboxylated glutamate residues in the Gla domain
notes: prothrombin (FII), mouse, plasma-derived; also called mouse FII
B3: bovine prothrombin (coagulation factor II) (natural protein)
chain: not shown
modifications: gamma-carboxylated glutamate residues in the Gla domain
notes: prothrombin (FII), bovine, plasma-derived; also called bovine FII; source: bought: Haematologic Technologies, Inc. (BCP-1010), plasma-derived
B4: hexon of Ad5.5 (Ad5 vector, hexon HVR7 VINTDTL), on the virion (natural protein, human adenovirus type 5)
chain: ATPSMMPQWSYMHISGQDASEYLSPGLVQFARATETYFSLNNKFRNPTVAPTHDVTTDRSQRLTLRFIPVDREDTAYSYKARFTLAVGDNRVLDMASTYFDIRGVLDRGPTFKPYSGTAYNALAPKGAPNPCEWDEAATALEINLEEEDDDNEDEVDEQAEQQKTHVFGQAPYSGINITKEGIQIGVEGQTPKYADKTFQPEPQIGESQWYETEINHAAGRVLKKTTPMKPCYGSYAKPTNENGGQGILVKQQNGKLESQVEMQFFSTTEATAGNGDNLTPKVVLYSEDVDIETPDTHISYMPTIKEGNSRELMGQQSMPNRPNYIAFRDNFIGLMYYNSTGNMGVLAGQASQLNAVVDLQDRNTELSYQLLLDSIGDRTRYFSMWNQAVDSYDPDVRIIENHGTEDELPNYCFPLGGVINTDTLTKVKPKTGQENGWEKDATEFSDKNEIRVGNNFAMEINLNANLWRNFLYSNIALYLPDKLKYSPSNVKISDNPNTYDYMNKRVVAPGLVDCYINLGARWSLDYMDNVNPFNHHRNAGLRYRSMLLGNGRYVPFHIQVPQKFFAIKNLLLLPGSYTYEWNFRKDVNMVLQSSLGNDLRVDGASIKFDSICLYATFFPMAHNTASTLEAMLRNDTNDQSFNDYLSAANMLYPIPANATNVPISIPSRNWAAFRGWAFTRLKTKETPSLGSGYDPYYTYSGSIPYLDGTFYLNHTFKKVAITFDSSVSWPGNDRLLTPNEFEIKRSVDGEGYNVAQCNMTKDWFLVQMLANYNIGYQGFYIPESYKDRMYSFFRNFQPMSRQVVDDTKYKDYQQVGILHQHNNSGFVGYLAPTMREGQAYPANFPYPLIGKTAVDSITQKKFLCDRTLWRIPFSSNFMSMGALTDLGQNLLYANSAHALDMTFEVDPMDEPTLLYVLFEVFDVVRVHRPHRGVIETVYLRTPFSAGNATT
notes: hexon of human adenovirus type 5, whole as in the capsid of the virion; HVR7 segment changed; The whole virion was immobilised; source: 293 cells, virions purified by CsCl ultracentrifugation
B5: hexon of wild-type human adenovirus type 5 (on virions) (natural protein)
chain: B4 chain with D423E
notes: hexon of human adenovirus type 5 (species C), whole hexon as it stands in the capsid of the virion; Immobilised as whole virions; also called Ad5; source: wild-type virus from ATCC, grown on 293 cells, virions purified by CsCl ultracentrifugation
B6: bovine coagulation factor X (natural protein)
chain: ANSFLEEVKQGNLERECLEEACSLEEAREVFEDAEQTDEFWSKYKDGDQCEGHPCLNQGHCKDGIGDYTCTCAEGFEGKNCEFSTREICSLDNGGCDQFCREERSEVRCSCAHGYVLGDDSKSCVSTERFPCGKFTQGRSRRWAIHTSEDALDASELEHYDPADLSPTESSLDLLGLNRTEPSAGEDGSQVVRIVGGRDCAEGECPWQALLVNEENEGFCGGTILNEFYVLTAAHCLHQAKRFTVRVGDRNTEQEEGNEMAHEVEMTVKHSRFVKETYDFDIAVLRLKTPIRFRRNVAPACLPEKDWAEATLMTQKTGIVSGFGRTHEKGRLSSTLKMLEVPYVDRSTCKLSSSFTITPNMFCAGYDTQPEDACQGDSGGPHVTRFKDTYFVTGIVSWGEGCARKGKFGVYTKVSNFLKWIDKIMKARAGAAGSRGHSEAPATWTVPPPLPL
modifications: gamma-carboxylated glutamate residues in the Gla domain
notes: coagulation factor X, bovine, plasma-derived; Pretreated with 125 uM GGACK (EGRCK); written here as one entry; also called bovine FX; source: bought: Haematologic Technologies, Inc. (BCX-1050), plasma-derived
B7: mouse coagulation factor X (natural protein)
chain: ANSFFEEFKKGNLERECMEEICSYEEVREIFEDDEKTKEYWTKYKDGDQCESSPCQNQGACRDGIGGYTCTCSEGFEGKNCELFVRKLCRLDNGDCDQFCREEQNSVVCSCASGYFLGNDGKSCISTAPFPCGKITTGRRKRSVALNTSDSELDLEDALLDEDFLSPTENPIELLNLNETQPERSSDDLVRIVGGRECKDGECPWQALLINEDNEGFCGGTILNEFYILTAAHCLHQARRFKVRVGDRNTEKEEGNEMVHEVDVVIKHNKFQRDTYDYDIAVLRLKTPITFRMNVAPACLPQKDWAESTLMTQKTGIVSGFGRTHEKGRQSNILKMLEVPYVDRNTCKLSTSFSITQNMFCAGYEAKLEDACQGDSGGPHVTRFKNTYYVTGIVSWGEGCARKGKYGIYTKVTTFLKWIDRSMKARVGPTAETPRTAGPPN
modifications: gamma-carboxylated glutamate residues in the Gla domain
notes: coagulation factor X, mouse, plasma-derived; Pretreated with 125 uM GGACK (EGRCK); written here as one entry; also called mouse FX; source: bought: Haematologic Technologies, Inc. (MCX-5050), plasma-derived

What all share (details): both partners purified
In assay [1] the target is T1, human prothrombin (coagulation factor II) (human, UniProt P00734 44-622, gamma-carboxylated glutamate residues in the Gla domain).
T1 construct: prothrombin (FII), human, plasma-derived; also called human FII; FII; source: bought: Haematologic Technologies, Inc. (HCP-0010), plasma-derived
As to the kind of experiment: SPR; Biacore T200; about 300 to 5,000 RU of Ad virions immobilised on a CM5 chip, coagulation factors flowed over at four concentrations, 50 uL/min; running buffer 10 mM HEPES, 150 mM NaCl, 1 mM CaCl2, 0.5 mM MgCl2, 0.1% BSA, 0.05% polysorbate 20, pH 7.4; regeneration with 3 mM EDTA; global fit to a 1:1 kinetic interaction model, double referencing.

The target in assay [2] is B5. The description is as above.
For assay [3], the target named is B1. The assay is described as above.
In assay [4] the target is T2, hexon of the E1/E3-deleted Ad5 vector Ad5.0 (wild-type Ad5 capsid, on virions) (human adenovirus 5, UniProt P04133 2-952).
T2 construct: hexon of human adenovirus type 5, unchanged, as it stands in the capsid of the vector; Immobilised as whole vector virions; source: E1/E3-deleted Ad5 vector grown on 293 cells, virions purified by CsCl ultracentrifugation
The description is as above.

Assay [5] concerns the target T3, human prothrombin (coagulation factor II) (human, UniProt P00734 44-622, γ-carboxylated glutamate residues in the Gla domain (positions not given)).
T3 construct: prothrombin (FII), human, plasma-derived; also called Human FII; FII; source: bought: Haematologic Technologies, Inc. (HCP-0010), plasma-derived; dialyzed
Kind of assay: SPR; Biacore T200; about 300 to 5,000 RU of Ad virions immobilised on a CM5 chip, coagulation factors flowed over at four concentrations, 50 uL/min; 10 mM HEPES, 150 mM NaCl, 1 mM CaCl2, 0.5 mM MgCl2, 0.1% BSA, 0.05% polysorbate 20, pH 7.4; global fit to a 1:1 kinetic interaction model, double referencing. For orientation: Surface plasmon resonance follows binding to a sensor surface in real time, without labels.

For orientation: Kd means a measure of binding affinity in units of concentration. Higher therefore signals weaker binding. The koff is a measure of how fast the partners let go of each other. Low values mean slow dissociation, high ones fast dissociation. As a reminder, the kon is a measure of how fast the partners come together. Low values mean slower complex formation, high ones faster complex formation.

In assay [1], B1 registered a Kd of 4.5 nM, a koff of 0.000393 s⁻¹ and a kon of 87400 M⁻¹ s⁻¹.
Consider B2, for which, in assay [2], binding was characterised by a dissociation constant (Kd) of 2100 nM, the off-rate constant (koff) amounted to 0.0518 s⁻¹ and the kon was 24500 M⁻¹ s⁻¹. In assay [3], this molecule displayed a Kd of 5.6 nM, a koff of 0.000393 s⁻¹ and a kon of 69700 M⁻¹ s⁻¹. In assay [4], this molecule had a Kd of 2000 nM, a koff of 0.0361 s⁻¹ and a kon of 18000 M⁻¹ s⁻¹.
In assay [3], B3 yielded a Kd of 140 nM, a koff of 0.00531 s⁻¹ and a kon of 37800 M⁻¹ s⁻¹.
Regarding B4, the affinity in assay [5], expressed as Kd, was 233 nM.
Turning to B5, in assay [1], binding was put at a Kd of 39 nM, the koff worked out at 0.00321 s⁻¹ and the kon was 83500 M⁻¹ s⁻¹.
Take B6: the values for the Kd in assay [2] and in assay [4] were 280 nM and 270 nM, respectively. Moreover, the koff in assay [2] stood at 0.115 s⁻¹; in assay [3], 0.0142 s⁻¹; in assay [4], 0.0711 s⁻¹. Also, the kon in assay [2] came to 410000 M⁻¹ s⁻¹; in assay [3] it was 194000 M⁻¹ s⁻¹; in assay [4], 262000 M⁻¹ s⁻¹.
In assay [2], B7 had a koff of 8.4e-05 s⁻¹ and a kon of 242000 M⁻¹ s⁻¹. In assay [3], this molecule gave a koff of 0.00018 s⁻¹ and a kon of 238000 M⁻¹ s⁻¹. For the same molecule, in assay [4], the Kd is 0.32 nM, the koff is 8.61e-05 s⁻¹ and the kon stood at 266000 M⁻¹ s⁻¹.
